Reference: the nanobody polyreactivity screen of Harvey et al. (2022)

test: yeast display, Sf9 membrane polyspecificity reagent, FACS + sequencing; frameworks hold sequencing errors
How it was run: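 Nanobodies came from a synthetic yeast display library in Saccharomyces cerevisiae BJ5465, induced with galactose for 36–48 hours and stained for 1 hour at 4 °C with 10% biotinylated, detergent-solubilized Sf9 membrane reagent. Cells were enriched on streptavidin microbeads and then FACS-sorted, with low and high (top ~1%) gates set on anti-HA fluorescence for expression and streptavidin fluorescence for reagent binding. Each polyreactivity label reflects the gate a clone came from. Genes were amplified by colony PCR, sequenced by MiSeq 2 × 250 and filtered by CDR length.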

Row | Sequence | polyreactivity (PSR sort gate)
1 | QVQLVESGGGLVQAGGSLRLSCAASGLIFVTNAMGWYRQAPGKERELVAAITRSGGSTYYADSVKGRFTISRDNAKITVYLQMNSLKPEDTAVYYCATGFHYAYGYCGQGTQVTVSS | low polyreactivity
2 | QVQLVESGGGLDQAGGSLRLRCAASGSTFYVNAIGWYRQAPGKERELVAAITSTGTTHNADSVKGRFTISRDNAKKTVYLQMNSLKPEDTAVYYCAAGDQYKTRRNGYGYWGQGTQVTVSS | high polyreactivity
3 | QVQLVESGGGLVQAGGSLRLSCAASGSTFYWNAMGWYRQAPGKESEFVARISSRGGSTYYADSVKGRFTISRDNAKNTVYLQMNSLKPEDTAVYYCAARLRRTQTYSSGRPGDYWGQGTQVTVSS | high polyreactivity
4 | QVQLEESGGGLVQAGGSLRLSCAACGSIFDNYAMGWYRQAPGKERELVAVISKRGGRTYYADSVKGRFTISRDNAKNTVYLQMNSLKPEDTAVYYCANGGQGSTPTSAWAKYDYWVQGTQVTVSS | high polyreactivity
5 | QVQLVESGGGLVQAGGSLRLSCAASGLTFYYYVMAWYRQAPGKERELVAAISRSGGSTRYADSVKGRFTISRDNANNTVYLQMNSLKPEDTAVYYCNAVRYPRLMYYWGQGTQVTVSS | high polyreactivity
6 | QVQLVESGGGLVQAGGSLRLSCAASGFTFDYYAMGWYRQAPGKERELVAAISWSGSTTYYADSVKGRFTISRDNAKNTVYLQMNSLKPEDTAVYYCATNLDRPFDYWGQGTQVTVSS | high polyreactivity
7 | QVQLVESGGGIVQAGGSLRLSCAASGIIFPVYAMGWYRQAPGKERELVAAISRSGGSTYYADSVKGRFTISRDNAKNNVYLQMNSLKPEDTAVYYCAARYVVGYSLSSYGYWGQGTQVTVSS | high polyreactivity
8 | QVQLVESGGGLVQAGGSLRLSCAASGRTFYSYAMGWYRQAPGKERELVASITSTGSTYYADSVKGRFTISRDNAKNTVYLQMNSLKPEDTAVYYCAARRQPRYSQRSTYYYWGQGTQVTVSS | high polyreactivity
9 | QVQLVESGGGLVQAGGSLRLSCAASGIIFRWYTKGWSRPAPGKERELVAAINYSSGDTYADSEKGRFTISRDNAKNTVYLQMNILKPEDTAVYYCAAEDPEYATYWYKYGYWGQGTQVNVSS | low polyreactivity
10 | QVQLVESGGGLVQAGGSHRLSCAASGRTFYRYPMGWYRQAPGKERELVATINSGTSTSYADSVKGRFTISRDNAKYTVYLQMNSLKPEDTAVYYCAAKLWTLSFSSRFGGMYYWGQGTQVTVSS | high polyreactivity
11 | QVQLVESGGGLVQAGGSRRLSCAASGFIFTTYTRGWYRQATGTERELVAAIRSDGVRTYYADSVKGRFTISRDNAKNTVYLQMNSLKPEDTAVYYCNRVCAVRIGAGDYWGQGTQVTVSS | high polyreactivity
12 | QVQLVESGGGLVQAGGSLRLSCAASGNTFYFNAMGWYRQAPGKERELVAAITSGGNTNYADSVKGRFTISRDHAKNTFNLQMNSLKPEDSAVYYCNVPRFSPIRNYDYWGQGTQVTVSS | high polyreactivity
13 | QVHLEESGGCLVQAGGSLRLSCAASGLFARNAMGWYRQAPGKERELVAAINRSGGSTYYADSVKGPFTISRDNAKNTVYLQMKSLKPEDTAVYYCNQAFTHTKDLSPIAYEYVFWGQGTQVTVSS | low polyreactivity
14 | QVQLVESGGGLVQAGGSLRLSCAAYGRTFWNYAMGWYRQAPGKERELVAAISSSGGTTYYADSVKGRFTISRDNAKNTVYLQMNSLKPEDTAVYYCAATGVSKPQRSFVYWGQGTQVTVSS | low polyreactivity
15 | QVQLVESGGVLVQAGGSLRLSCAASGRIFDIYAMGWYRQAPGKERELVAGITWRAGSTYYADSVKGRFTISRDNAKNTVYLQMNSLKPEDSAVYFCARDYSRHKGDYWGQGTQVTVSS | low polyreactivity
16 | QVQLVDSGGGLVQAGGRLRLSCAASGNNFVEYAMGWYRPAPGKERELVAAITNSGGRTHYADSVKRRFTISRDNAKNTVYLQMNSLKPEDTGVYYCAAPTKYRSRRYYWGQGTLVTVSS | high polyreactivity
17 | QDQLVESGGALVQAGGSLRLSCAASGSIFDYNAMGWYRQAPRKDRELVAAISVNGGNTYYADSVKGRFTISRDNAKNTVYLQMNRLKPEDTGVSYCAADSYGGSNYDFWGQGTQVTVSS | low polyreactivity
18 | QVQLVESGGGLVQAGGSLRLSCAASGFTFGGYAMGWYRQAPGKERELVAAITRSGGRTYYADSVKGRFTISRDNAKNTVYLQMNSLKPEDTAVYYCNAYVIRALGYGGYDYWGQGTQVTVSS | high polyreactivity
19 | QVQLVESGGGLVQAGGSLRLSCAASGITIRGYAMGWYRQAPGKERELVAAINTRTSTYYADSVKGRFTISRDNAKNTVYLQMNSLKPEDTAVYYCNRDPVYYDFDYWGQGTQVTVSS | low polyreactivity
20 | QVQLQESGGGLVQAGGCLSCTASGTIFGQGDMGWYRQAPGKERELVATINVGASTYYADSVKGRFTISRDKAKNTVYLQKNSLKPDDTAVYYCAVFTDITTYFGYWGQGTQVTVSS | low polyreactivity
21 | QVQLVESGGGLVQAGGSLRLICAASGSIFHVNSMGWYRQAPGKERELVAGISDGGSTYYADSVKGRFTISRDNAKNTVYLQMNSLKPEDTAVSYCAAESEQWYSYVLSYDWEYDYWGQGTHVTVSS | low polyreactivity
22 | QVQLEESGGGLVQAGGSLPLSCASSGRIFCVYAMGWYRQAPGKESELVATITSGGSTSYADSVKGRFTISRDNANYTVYLLMNSLKPEDTAVYYCNGPYSFFWQQMNYWGHGTQVTVSS | low polyreactivity

Row | Sequence | polyreactivity (PSR sort gate)
23 | QVQLVESGGRLVQAGGSLRLSCAASGSIFRSYAMGWYRQAPGKERELVATISSSTGSTYYADSVKGRFTISRDNAKNTVYLQRNSLKPEDTAVYYCNAQRRWSIYGYFYYWGQGTQVTVSS | high polyreactivity
24 | QVQLVESGGGLVQAGGSLRLSCAASGRIFRYYAMGWYRQAPGKERELVATISSSGGSTYYADSVKGRFTISRDNAKNTVYLQMKSLKPEDTAVYYCAADWYGYRQFHGYYWGQGTQVTVSS | high polyreactivity
25 | QVQLVESGGGLVQAGGSLRLSCAASGYIFVRYAMGWYRQAPGKEREFVAAISSSGGSTRYADSVKGRFTISRDNAKNTVYLQMNSLKPEDTAVYYCAATRVARHGSPMYYWGQGTEVTVSS | high polyreactivity
26 | QVQLVESCGCLVQAGCSLRLSCAASGSTFQGYAMGWYRQAPGKERELVAAITIRGTRTYYADSVKGRFTISRDNAKNTVYLQMNSLKPEDTAVYYCAAYDYRHLEDKYDYWGQGTQVTVSS | high polyreactivity
27 | QVQLVESGGGLVQAGGSLRLSCAASGRIFNRYAMGWYRQAPGKERELVAAISASGDNTYYADSVKGRFTISRDNAKKNVYLQMNSLKPEDTAVYYCAARYYTYLHFRMYYWGQGTQVTVSS | high polyreactivity
28 | QVQLVESVGGLVQAGGSLRLSCAASGRIFDSYTMGWYRQAPGKERELVAAISRGGGSTYYADSVKGRFTISRDNAKYTVYLQMNSLKPEDTAVYYCAASSYLNSRFKFDYWGQGTQVTVSS | low polyreactivity
29 | QVQLVESGGGLVQAGGSLRLSCAASGFTFFHYAMGWYRQAPGKERELVAAIDYSAGSTYYADSVKGRFTISRDNAKNTVYLQMNSMKPEDTAVYYCAADARTSRGRRYYYWGQGTQVTVSS | low polyreactivity
30 | QVQLVESGGGLVQAGGSLRLCCAASGITFALNAMRWYRQAPGNERELLAAISWSGDSTYYADSVKGRITIARDNAKNTVYLQMNSLKPEDTAVYYCAAVAYLNWTPHYYWGQGTQVTVSS | low polyreactivity
31 | QVQLVESGGGLVQAGGSLRLSCAASGSTFLKYTMGWYRQAPRKDRELVAGITRSSRSTYYADSVKGRFTISRDNAKYTVYLQMNSLKPEDTAVYYCAATVYLYTDLAYYWFGYWGQGTQVTVAS | high polyreactivity
32 | QVQLVESGGGLVQAGGSLRLSCAASGRNSPSYAMGWYRQAPGKERELVAAISKRGGTTYYADSVKGRFTISRDNAKNTVYLQMNSLKPEDTAVYYCSARDYSHPTDDNYWGQRTQVTVSS | high polyreactivity
33 | QVQLVESGGGLVQAGGSLRLSCAASGLIFYRYAMGWYRQAPGTERELVAVITRSGCNTNYADSVKGRFTISRDNAKNTVYLQMNSLKPEDTEVYYCDTRGIWKKVPYYYWGQGTQVTVSS | low polyreactivity
34 | QVKLVESGGGLVQAGGSLRLSCAASGFIFLLYDMGWYRQAPGKERELVAANTSDGTTNYADSVKGRFTISRDNAKNTVYLQMNSLKPEDTAVYYCAADDEPYVYEVTAYLGYEYWGQGTQVTVSS | high polyreactivity
35 | QVQHVESGGGLVHAGGSLRLSCASSGSIFYPYAMGWYRQAQGKERELVAAIRNGGSTYYTDSVKGRFTISRDNAKNTVYLQMNSLKPEDTAVYYCAASVRRRHPFEYWGQGTQVTVSS | high polyreactivity
36 | QVHLVESVGGLVQAGGSLRLSCAASGSIFDVYTMGCYRQAPGKERELVAAINTGGGSKYYADSVKGRFTISRDNAKNTVYLQMNSLKPEDTAVYYCAASVYHYGPLYYWGQGTQVTVSS | low polyreactivity
37 | QVQLVESGGGLVQAGGSLRLSCAASGRTLQGYAMGWYSQAPGKERELVAAISRGGGSTYADSVKGRFTISRDNAKNTVYLQMNSLKPEDTAVYYCAAVRGIYGGHYFRYDYWGQGTQVTVSS | high polyreactivity
38 | QVQLVESGGGLVKAGGSLRLSCAASGRTFYVNAMGWYRQAPGKEREFVAAISRRGGSTYYADSVKGRFTISRDNAKNTVYFQLNSLKPEDTAVYYCATGYHRWSSWALDYWGQGTQVTVSS | high polyreactivity
39 | QVKLVESGGGLVQAGGSLRLSCAASGITIRFNAMGWYRQAPGKERELVPAITSSGGRTYYADSVKVRFTISRDNAKNTVYLQMNSLKPEDTAVYYCAAYYRYSTTEDRSVYRGYYYWGQGTQVTVSS | high polyreactivity
40 | QVQLVESAGGLVQEGGSLRLSCAASGSTFGDNAMGWYSQAPGKERELVAAITSVGTTYYADSVKGRFTISRDNAKNTVYLQMNSLKPEDSAVYDCNADWSWYNYYDFDYWGQGTQVTVSS | low polyreactivity
41 | QVQLVESGRGLVQAGGSLRLSCAPSGLIFRYYAMGWYRQAPGKEREFVAAISGRGASTYYADSVKGRFTISRDNAKNTVYLQMNSLKPEDTAVYYCATYFPSAVVAFHMDYWGQGTQVTVST | high polyreactivity
42 | QVQLVESGGGLVQAGGSLRLSCAASGSIFDDYAMGWYRKAPGKERELVAAITSGGSTYYADSVKGRFTISRDNAKNTVYLQMNSLKPEDTAVYYRATRYHWSSSFAPVGAYGYWGQGTQVTVSS | low polyreactivity
43 | QVQLVESGGGLVQAGGSLRLSCAASGSIFTGNAMGWYRPAPGKERELVAAISSSGGSTYYADSVKGRFTISRDNSKNTVYLQMNSLKPEDTAVYYSAAYNYFLQYDYWGHGTQVTVSS | low polyreactivity
